Experimental data taken from paper PMC7174398.
Each block holds one substance with its values, some of them ahead of it.

Columns and labels:
[1] = target: mHsp60 S464C variant (human); test: SEC-MALS; mHsp60 (WT or variant) with mHsp10, pre-incubated with 1 mM ATP, 1 mM BeCl2 and 10 mM NaF for 5 min; Superose-6, ~25 C
[2] = target: mHsp60 S464C variant (human); test: native gel or EMSA; 15 uM mHsp60 variant pre-incubated 5 min without nucleotide or with ADP in 20 mM Tris-HCl pH 7.7, 20 mM MgCl2, 50 mM KCl; 6% native PAGE
[3] = target: mHsp60 S464R variant (human); test: SEC-MALS; mHsp60 (WT or variant) with mHsp10, pre-incubated with 1 mM ATP, 1 mM BeCl2 and 10 mM NaF for 5 min; Superose-6, ~25 C
[4] = target: mHsp60 S464R/K109E variant (human); test: as above

stoichiometry N [1]: 14 | stoichiometry N [2]: 7
Substance: mHsp60 S464C variant (natural protein)

stoichiometry N [3]: 7
Substance: mHsp60 S464R variant (natural protein)

stoichiometry N [4]: 7
Substance: mHsp60 S464R/K109E variant (natural protein)
